B1: E-OVA_(323-336) (peptide)
peptide: EWEAEAEAEWEGGGQAVHAAHAEINEAGR

Legend:
E-OVA_(323-336) = target: B1; assay: TEM + rheology + circular dichroism
TEM + DLS = target: the molecule itself; assay: TEM + DLS

binding result (E-OVA_(323-336)) | Binder | binding result (TEM + DLS)
binds | KWKAKAKAKWKGGGSIINFEKL [K-OVA_(257-264)] | binds
– | B1 | binds

— paper PMC8080410 (Bioactive Materials, 2021)
